Source: publication PMC9309889, “Cryo-EM Structure of an Atypical Proton-Coupled Peptide Transporter: Di- and Tripeptide Permease C” (Frontiers in Molecular Biosciences, 2022)

Target: the molecule itself
Assay: cryo-EM structure; DtpC-Nb26 complex in 0.015% DDM, 100 mM NaCl, 10 mM HEPES pH 7.5, 0.5 mM TCEP; inverted dimer at 3.0 Å, local focused refinement on one transporter at 2.7 Å

B1: Di- and tripeptide permease C (DtpC), wild type (natural protein, Escherichia coli, UniProt P39276 1-485, looked up)
chain: MKTPSQPRAIYYIVAIQIWEYFSFYGMRALLILYLTHQLGFDDNHAISLFSAYASLVYVTPILGGWLADRLLGNRTAVIAGALLMTLGHVVLGIDTNSTFSLYLALAIIICGYGLFKSNISCLLGELYDENDHRRDGGFSLLYAAGNIGSIAAPIACGLAAQWYGWHVGFALAGGGMFIGLLIFLSGHRHFQSTRSMDKKALTSVKFALPVWSWLVVMLCLAPVFFTLLLENDWSGYLLAIVCLIAAQIIARMMIKFPEHRRALWQIVLLMFVGTLFWVLAQQGGSTISLFIDRFVNRQAFNIEVPTALFQSVNAIAVMLAGVVLAWLASPESRGNSTLRVWLKFAFGLLLMACGFMLLAFDARHAAADGQASMGVMISGLALMGFAELFIDPVAIAQITRLKMSGVLTGIYMLATGAVANWLAGVVAQQTTESQISGMAIAAYQRFFSQMGEWTLACVAIIVVLAFATRFLFSTPTNMIQESND
notes: Di- and tripeptide permease C (DtpC, YjdL) of Escherichia coli; full-length cDNA amplified from the E. coli genome, cloned into pNIC-CTHF; The His tag was cut off with TEV protease; also called YjdL; DtpC WT; source: E. coli C41(DE3), purified in DDM (Ni-NTA, TEV cleavage, negative IMAC, SEC); not shown: His-Tag, C-terminal, cleaved
stoichiometry N: 2
